These results are taken from patent US20090136481A1.

This assay has as its target recombinant myostatin. In words: cell-based or functional assay.

As for “350 protein (dominant negative peptide of myostatin C-terminally truncated at amino acid 350; amino acids 267-350 of bovine myostatin) (from UniProt O18836 267-350)”, the macrophage migration in chemotaxis assay (ZAMS medium with 5 µg/ml myostatin, with or without 350 protein) was 20 fold.
